Data taken from PMC9158284, “N-terminally truncated Aβ4-x proteoforms and their relevance for Alzheimer’s pathophysiology” (Translational Neurodegeneration, 2022).
Entries after “also recorded” stand apart in the source; their conditions may differ.

Assays:
[1] = Thioflavin T binding assay; assay type: physicochemical; conditions: after 24-h incubation at 37 °C under physiological salt concentrations; 50 mM Tris–HCl pH 8.5; ex 435 / em 490 nm; three independent experiments
Experimental: Aggregation of the different Aβ homologues was also monitored by Thioflavin T binding, following previously described protocols. Briefly, 6 μl aliquots from each peptide aggregation time point were added to 184 μl of 50 mM Tris–HCl buffer, pH 8.5, and 10 µl of 0.1 mM thioflavin T (Sigma). Fluorescence was recorded for 300 s in an LS-50B spectrometer (Perkin Elmer, Waltham, MA) with a slit width of 10 nm and excitation and emission wavelengths of 435 and 490 nm, respectively.

[2] = Autoradiography after SDS-polyacrylamide gel electrophoresis of [125I]-labeled Aβ preparations; assay type: physicochemical; conditions: [125I]-labeled 24-h incubated preparations, 16.5% SDS–polyacrylamide gel
Experimental: (§1) One hundred micrograms of either full-length or truncated Aβ species in both monomeric and oligomeric forms were radiolabeled using 1,3,4,6-tetrachloro-3α-6α-diphenylglycoluril pre-coated tubes (Iodogen, ThermoFisher Scientific/Pierce, Waltham, MA) and Na^125I (1 mCi, PerkinElmer, Waltham, MA), following the manufacturer’s specifications. All radiolabeling procedures were carried out for 20 min in a Standalone Radioiodine IH-350 hood (Atlantic Nuclear, Rockland, MA). Following removal of free Iodine using a desalting polyacrylamide column (D-salt, cut off 1.8 kDa, Pierce), radioactivity of labeled Aβ was assessed in a Perkin Elmer 1470 automated gamma counter (Perkin Elmer, Waltham, MA). Under these experimental conditions, [^125I] incorporation rendered specific activities in the range of 3–5 µCi/µg with > 98% TCA precipitable counts. Aggregation status of the [^125I]-labeled Aβ monomeric and oligomeric species was analyzed by autoradiography following 16.5% SDS–polyacrylamide gel electrophoresis and subsequent direct exposure to HyBlot CL film (Denville Scientific Inc., South Plainfield, NJ), as we previously described. If not immediately used for the clearance experiments, [^125I]Aβ oligomeric peptides were stored at -80 °C and used within a week to prevent further oligomerization and minimize radiolysis.

[3] = parameters: species or system C57BL/6 mice; conditions: mouse, in vivo
Experimental: as §1
C57BL/6 mice (Taconic Biosciences, Hudson, NY) were intracerebrally injected with the different Aβ preparations following institutionally approved IACUC protocols, essentially as previously reported by our laboratory. […] Radioactivity remaining in the whole brain was assessed in the Perkin Elmer 1470 γ-counter.

[4] = after 24-h incubation at 37 °C, 50 μM in 10 mM phosphate buffer pH 7.4, 150 mM NaF; mean of 15 scans
Experimental: Changes in the secondary structure of the different Aβ peptides induced by the oligomerization procedure were estimated by CD spectroscopy, as previously described [66]. The HFIP-pretreated peptides were solubilized in deionized water as above, followed by further dilution to a final concentration of 50 μM in 10 mM phosphate buffer, pH 7.4, containing 150 mM sodium fluoride. Spectra in the far-ultraviolet (wavelength range: 190–260 nm; band-width 1 nm; intervals 1 nm; scan rate 60 nm/min) were recorded for each peptide immediately after solubilization and following 24-h incubation at 37 °C in a Jasco J-720 spectropolarimeter (Jasco Inc., Easton, MD) using a 1-mm-path quartz cell. For each sample, 15 consecutive spectra were obtained and averaged, the baseline reading was subtracted, and results were expressed in terms of molar ellipticity (deg × cm^2/dmol).

[5] = Electron microscopy after negative staining; assay type: physicochemical; conditions: 24-h incubation/oligomerization
Experimental: All synthetic homologues were incubated at a concentration of 1 mg/ml in 1,1,1,3,3,3,hexafluoro-isopropanol (HFIP; Sigma Chemical Co., St. Louis, MO) for 4 days, a pretreatment that breaks down β-sheet structures and disrupts hydrophobic forces, leading to monodisperse amyloid subunit preparations [67]. The HFIP-pretreated peptides were lyophilized and subsequently reconstituted to 1 mM in 1% NH4OH followed by further dilution in phosphate-buffered saline (PBS) to a final concentration of 50 µM and immediately used for radioiodination and direct intracerebral injection. […] The resulting oligomers were immediately used for radiolabeling and intracerebral injections.
Peptide oligomerization was also monitored by electron microscopy, as previously described [38, 66, 71]. Five microliters of either monomeric or oligomeric preparations of the different Aβ peptides were placed onto carbon-coated 400 mesh Cu/Rh grids (Ted Pella, Inc., Redding, CA) and stained with 1% uranyl acetate in distilled water (Polysciences, Inc., Warrington, PA). The stained grids were examined in a Philips CM-12 transmission electron microscope and photographed with a Gatan (4 k × 2.7 k) digital camera at the Image Core Facility of the Skirball Institute of Biomedical Medicine, NYU School of Medicine, as described [66, 71, 72].

[6] = mouse, in vivo; cited from earlier work
Excerpt: In this sense, it is important to emphasize that the cerebral microvasculature, a main player in the regulation of Aβ homeostasis, suffers ...

Substance	Thioflavin T binding (fluorescence) of oligomerized peptides [1]	SDS-resistant oligomeric species of 24-h incubated preparations [2]	Brain clearance, percentage cleared relative to the total injected radioactivity, oligomeric (24-h incubated) preparation [3]	Secondary structure by CD upon oligomerization [4]	Protofibrillar assemblies after the aggregation procedure, length (electron microscopy) [5]	Percentage cleared from brain, oligomeric form [6] [%]
Aβ1-34: Synthetic homologue of amyloid-β C-terminally truncated at Leu34	negligible fluorescence signal	did not oligomerize within the 24-h experimental timeframe	86% ± 6%	maintained the same unordered conformation before and after	did not form protofibrilar elements	
Aβ1-40: Synthetic homologue of full-length amyloid-β 1-40	low-to-intermediate thioflavin T binding activity	dimeric, trimeric and tetrameric assemblies		intermediate mixture of β-sheet and unordered structures		< 40
Aβ1-42: Synthetic homologue of full-length amyloid-β 1-42	highest thioflavin T binding	from tetramers to dodecamers	61% ± 4%	this type of secondary structure became more relevant		
Aβ4-40: Synthetic homologue of Aβ1-40 N-terminally truncated at Phe4	low-to-intermediate thioflavin T binding activity; also recorded: higher thioflavin-binding activity than the full-length counterpart Aβ1-40	from tetramers to dodecamers	46% ± 5%	predominant unstructured random conformations		
